Reference: article PMC12831459, “Identification and characterization of a TGF-β-independent SMAD4–NFATc1–STAT3 regulatory axis” (Journal of Molecular Cell Biology, 2025)

Biological target: T1, GST-SMAD4 (full-length, WT) (human, UniProt Q13485 1-552)
T1 construct: SMAD4, human, Human ORFeome V8.1 clone; Gateway mammalian GST expression vector (Li et al., 2017); details in the Supplementary material; also called GST-tagged SMAD4 FL; GST-tagged SMAD4 WT; source: HEK293T, transfected, in lysate
T1 sequence (looked up): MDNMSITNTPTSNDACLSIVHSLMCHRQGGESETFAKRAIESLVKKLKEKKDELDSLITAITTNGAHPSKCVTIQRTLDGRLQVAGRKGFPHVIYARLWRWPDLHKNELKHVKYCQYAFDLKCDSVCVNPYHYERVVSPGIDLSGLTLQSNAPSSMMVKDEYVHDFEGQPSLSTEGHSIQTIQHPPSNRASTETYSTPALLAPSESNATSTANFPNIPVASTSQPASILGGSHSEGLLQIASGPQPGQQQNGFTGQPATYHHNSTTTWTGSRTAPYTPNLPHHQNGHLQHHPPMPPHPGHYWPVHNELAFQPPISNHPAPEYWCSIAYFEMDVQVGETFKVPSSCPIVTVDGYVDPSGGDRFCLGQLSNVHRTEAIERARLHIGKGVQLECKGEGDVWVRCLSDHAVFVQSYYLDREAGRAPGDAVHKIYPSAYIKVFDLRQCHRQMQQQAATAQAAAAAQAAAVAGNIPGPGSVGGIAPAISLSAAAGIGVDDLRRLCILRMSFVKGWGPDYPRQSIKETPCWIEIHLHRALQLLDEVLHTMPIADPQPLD
Assay: FRET or BRET; TR-FRET of single pairs: GST-SMAD4 (WT, domain truncations, truncation mutants) with VF-tagged partners; signal as fold change over empty vector controls
Details: partners not purified

TR-FRET PPI signal, fold-of-change (FOC) over negative controls: > 3 fold
B1: Venus-Flag-tagged NFATc1 (VF-NFATc1), full-length WT (natural protein, human, UniProt O95644-2 1-716, looked up)
chain: MPSTSFPVPSKFPLGPAAAVFGRGETLGPAPRAGGTMKSAEEEHYGYASSNVSPALPLPTAHSTLPAPCHNLQTSTPGIIPPADHPSGYGAALDGGPAGYFLSSGHTRPDGAPALESPRIEITSCLGLYHNNNQFFHDVEVEDVLPSSKRSPSTATLSLPSLEAYRDPSCLSPASSLSSRSCNSEASSYESNYSYPYASPQTSPWQSPCVSPKTTDPEEGFPRGLGACTLLGSPRHSPSTSPRASVTEESWLGARSSRPASPCNKRKYSLNGRQPPYSPHHSPTPSPHGSPRVSVTDDSWLGNTTQYTSSAIVAAINALTTDSSLDLGDGVPVKSRKTTLEQPPSVALKVEPVGEDLGSPPPPADFAPEDYSSFQHIRKGGFCDQYLAVPQHPYQWAKPKPLSPTSYMSPTLPALDWQLPSHSGPYELRIEVQPKSHHRAHYETEGSRGAVKASAGGHPIVQLHGYLENEPLMLQLFIGTADDRLLRPHAFYQVHRITGKTVSTTSHEAILSNTKVLEIPLLPENSMRAVIDCAGILKLRNSDIELRKGETDIGRKNTRVRLVFRVHVPQPSGRTLSLQVASNPIECSQRSAQELPLVEKQSTDSYPVVGGKKMVLSGHNFLQDSKVIFVEKAPDGHHVWEMEAKTDRDLCKPNSLVVEIPPFRNQRITSPVHVSFYVCNGKRKRSQYQRFTYLPANGNAIFLTVSREHERVGCFF
notes: NFATc1, human, Human ORFeome V8.1 clone; also called VF-tagged NFATc1 FL; VF-tagged NFATc1 WT; source: HEK293T, transfected, in lysate; in live cells for the BRET screen
